Test results reported in the supplement of paper PMC10567573.
± gives the standard deviation.

Experiment: protein stability index of a GFP-peptide fusion (GPS, HEK-293T) (PSI 1-6); higher = more stable
Conditions: c terminus: a fixed tail appended
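Also: 24-mer peptide tiles fused after GFP, lentivirally expressed, FACS-sorted into six equal bins by GFP/DsRed ratio, decoded by Illumina sequencing, PSI is the read-weighted mean bin number.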

Row | Sequence | protein stability index (treatment: DMSO) | protein stability index (treatment: MLN4924 1 uM, 8 h)
1 | AAANCHFHCIETLVTTGANVNETD [ANKRD44] | 3.99 ± 0.22 | 4.08 ± 0.15
2 | AAANKLFHYIPGTDILDLENQREN [PLEKHN1] | 4.13 ± 0.3 | 3.92 ± 0.43
3 | AACLYLVCRTEGTPHMLLDLSDLL [BRF1] | 3.31 ± 0.47 | 2.85 ± 0.43
4 | AAKQLEYQQLEDDKLSQKSSSSKL [EPB41L3] | 5 ± 0.64 | 4.92 ± 0.33
5 | AALLQLVRRLQALRLEREEYVLLK [ESRRA] | 2.19 ± 0.37 | 1.95 ± 0.18
6 | AANLPALVLKIMSGTFAPISDRYS [NEK8] | 3.08 ± 0.27 | 2.9 ± 0.56
7 | AARAVRANDINYQDQIPRTLEEFV [FEM1B] | 3.96 ± 0.21 | 3.77 ± 0.32
8 | AASSAKMGLVETKLAIIPGGGGTQ [AUH] | 3.83 ± 0.66 | 4.61 ± 0.51
9 | AATDITGFGILGHSQNLAKQQRNE [SEPHS2] | 4.68 ± 0.38 | 4.57 ± 0.31
10 | AAVESVLHLGLPWRMLRPQLVNSS [PPEF2] | 2.74 ± 0.81 | 2.46 ± 0.41
11 | ACDIRVAASSAKMGLVETKLAIIP [AUH] | 2.95 ± 0.22 | 3.03 ± 0.32
12 | ACGGTRDQLFMQEKARQLLGRLKP [MYBL2] | 3.39 ± 0.54 | 3.29 ± 0.38
13 | ACGVILYILLVGYPPFWDEDQHKL [CAMK2B] | 3.05 ± 0.85 | 2.93 ± 0.38
14 | ADDESETPEELEEEIPVVICAAAG [GLT8D2] | 5.582 ± 0.029 | 5.5 ± 0.35
15 | ADVTLDPETAHPNLVLSEDRKSVK [TRIM39] | 5.38 ± 0.16 | 5.37 ± 0.43
16 | AEAGHVDICHMLVQFCRLGSPRSR [EHMT1] | 2.3 ± 0.17 | 2.37 ± 0.34
17 | AEDDHMLIQNEYRNGGSLADAISE [WEE1] | 5.06 ± 0.27 | 4.9 ± 0.43
18 | AEEPNAAVPDEIPPLEGDEDASRM [HSP90AB1] | 5.74 ± 0.15 | 5.65 ± 0.15
19 | AEEYEDSSTKPPKSRRKAALSSPR [INTS3] | 5.23 ± 0.12 | 5.27 ± 0.27
20 | AEISARTMQSMFAKNFHVKAVMKT [PTPRD] | 2.56 ± 0.32 | 2.67 ± 0.39
21 | AELFSYVLQDRAAKGSLGTQIGFA [FEM1A] | 2.16 ± 0.21 | 2.11 ± 0.23
22 | AELLIFSVPIVYEKYKTQIDHYVG [RTN3] | 2.65 ± 0.77 | 2.61 ± 0.56
23 | AEYYRLHLEGYHGTAGDSMSYHSG [TNXB] | 3.09 ± 0.83 | 2.96 ± 0.43

Row | Sequence | protein stability index (treatment: DMSO) | protein stability index (treatment: MLN4924 1 uM, 8 h)
24 | AFLKLAKQRSVCTWGKNKPGIGAV [FAN1] | 2.76 ± 0.4 | 2.3 ± 0.48
25 | AGGYVDVVKVLLESGASIEDHNEN [ANKRD17] | 3.08 ± 0.24 | 3.12 ± 0.36
26 | AGHRRPAGGIRESKESSKEKKLTV [C22orf31] | 5.05 ± 0.41 | 4.86 ± 0.38
27 | AHQQKKHSGFEDELSEVLENQSSQ [CHGA] | 5.28 ± 0.26 | 5.25 ± 0.34
28 | AIAWCLRNEGVSSVLLGASNADQL [KCNAB2] | 2.23 ± 0.27 | 2.1 ± 0.13
29 | AIIGWLLTTCTSNVAASNAKLALF [INTS3] | 3.13 ± 0.21 | 3 ± 0.45
30 | AINRDTAFPGASHESSGNPPLRVI [RHOBTB3] | 3.44 ± 0.049 | 3.47 ± 0.29
31 | AIRRFQSMPVRLLGHSPVLRNITN [CDC25B] | 2.42 ± 0.35 | 2.24 ± 0.22
32 | AKKFMWRDSFMRHRGHCERRHRLG [ZBTB22] | 2.94 ± 0.23 | 3.1 ± 0.41
33 | AKVTGEVLDILTRLPESVERLTGV [FLOT1] | 2.98 ± 0.37 | 3.17 ± 0.34
34 | ALAEGYRYPELDTPKLDCFLSGME [TBX6] | 3.2 ± 0.48 | 3.5 ± 0.19
35 | ALDEIKLLKCVRESDPSDPNKDMV [SRPK2] | 4.75 ± 0.23 | 4.54 ± 0.26
36 | ALDYLQNQRIIHRDMKPDNILLDE [STK32A] | 3.14 ± 0.17 | 3.47 ± 0.45
37 | ALHSLTQAGDYSMRVDLRAGDEAV [TNXB] | 3.39 ± 0.57 | 3.6 ± 0.49
38 | ALKKRSGKKDKHSQSPRAAGPREG [PBXIP1] | 4.64 ± 0.14 | 4.83 ± 0.34
39 | ALKKSADWVSDWSSRPENIPPKEF [BNIP3L] | 3.55 ± 0.23 | 3.77 ± 0.18
40 | ALNWTDIPVAMEHQPPYIIAVLPR [VPS39] | 2.23 ± 0.38 | 2.25 ± 0.29
41 | ALRQSVEADINGLRRVLDELTLSK [KRT13] | 3.08 ± 0.2 | 3.09 ± 0.26
42 | ALSGKYSREFFNRRGELRHITKLK [SRPK2] | 2.87 ± 0.15 | 3.28 ± 0.27
43 | ALVDGQIFCLHGGLSPSIDTLDHI [PPP2CA] | 1.9 ± 0.19 | 2.19 ± 0.38
44 | ALVETSYVKVLHHMVKISGGPHIS [MAGEA3] | 2.8 ± 0.52 | 2.82 ± 0.78
45 | AMCVGCGSQIHDQFILRVSPDLEW [ISL2] | 2.18 ± 0.36 | 2.16 ± 0.21
46 | AMYISQEEWGHQDPSKRALSRDTV [ZNF263] | 3.81 ± 0.12 | 4.06 ± 0.14

Row | Sequence | protein stability index (treatment: DMSO) | protein stability index (treatment: MLN4924 1 uM, 8 h)
47 | ANLPVPTIAAIDGLALGGGLELAL [AUH] | 2.35 ± 0.37 | 2.02 ± 0.55
48 | APFLSQADDPDDGPVPGTPGLPGS [SPNS1] | 5.55 ± 0.34 | 5.43 ± 0.21
49 | APLRKLSVDLIKTYKHINEVYYAK [DYRK1B] | 2.84 ± 0.15 | 2.96 ± 0.25
50 | APSNSTSLNSTFGSTNLTGLFFPP [NFE2L1] | 3.32 ± 0.26 | 3.08 ± 0.29
51 | AQQDLAPDPDAWLRALGELLRRDL [FANCE] | 3.11 ± 0.4 | 3.15 ± 0.3
52 | ARIYIRRTLRNFINDEMQAKGIPQ [PCMTD1] | 2.01 ± 0.33 | 2.15 ± 0.18
53 | ARLNGSVASYILASHNGISYKDLD [TENT5D] | 2.85 ± 0.47 | 2.68 ± 0.21
54 | ARPSSASIRDANLYVSGLPKTMSQ [ELAVL3] | 4.08 ± 0.61 | 3.81 ± 0.098
55 | ARRQHLKSVMLQIAATELEKEESR [TNNI2] | 4.31 ± 0.23 | 4.36 ± 0.33
56 | ASDPLLSSVSPAVSKASSRRSSFS [TFE3] | 4.69 ± 0.15 | 4.79 ± 0.25
57 | ASLKSEAESLKGKLEEERAKLHDV [GNB5] | 5.32 ± 0.11 | 5.26 ± 0.32
58 | ATEPATCFPSTQKPTEPSVPVQPL [FBF1] | 4.9 ± 0.099 | 4.96 ± 0.1
59 | ATLPGIFMLLLIFFAFLHCWLNAF [SOAT2] | 2.46 ± 0.5 | 2.3 ± 0.36
60 | AVAGPPAAAEVGGGVGGSSRARSA [ANKRD17] | 5.36 ± 0.22 | 5.14 ± 0.33
61 | AVIDSEKDMNFLKRYAGREEHWVG [CD69] | 2.72 ± 0.39 | 3.08 ± 0.29
62 | AVQRLEGALWGLQAQAVQTEQAVA [SCARA5] | 2.89 ± 0.19 | 3.01 ± 0.34
63 | AVVKPGNTKEKIAFFASHQCSNRI [FBXO34] | 3.81 ± 0.24 | 3.83 ± 0.35
64 | AWFGFAGTPGYLSPEVLRKDPYGK [CAMK2A] | 2.46 ± 0.2 | 2.88 ± 0.34
65 | AWKDDFALNSMLRRRFREKKKAIQ [YJU2B] | 3.27 ± 0.36 | 3.37 ± 0.13
66 | AYTQTQFHNLRNTLDGYGIHPKSI [NFE2L1] | 2.57 ± 0.3 | 2.34 ± 0.26
67 | AYVLSKYQYFVCPVEYRSDVNSFV [CDS1] | 2.6 ± 0.46 | 2.68 ± 0.75
68 | CADVILVLQERVRIFAHKIYLSTS [RHOBTB2] | 3.01 ± 0.25 | 3.02 ± 0.49
69 | CDDYFFIAHRGERRGIGGIFFDDL [CPOX] | 2.16 ± 0.31 | 1.96 ± 0.45

Row | Sequence | protein stability index (treatment: DMSO) | protein stability index (treatment: MLN4924 1 uM, 8 h)
70 | CEKYLPGYYSEKLEAIQLDGEILF [TBC1D10A] | 2.14 ± 0.19 | 2.12 ± 0.24
71 | CFVLFSLTHTHTHTPNHRGINCFF [ANKRD44] | 2.66 ± 0.032 | 2.82 ± 0.5
72 | CGKCFSQNTHLTRHQRTHTGEKPY [ZNF263] | 2.94 ± 0.16 | 3.22 ± 0.14
73 | CHRRYSCAHCRAHLANHDDLISKS [YPEL3] | 2.44 ± 0.46 | 2.81 ± 0.4
74 | CHSHTVVQDYSYFFFLRMDENYNL [CCDC3] | 2.49 ± 0.68 | 2.4 ± 0.63
75 | CIMDDAINILQNEKSHQVLAQLLD [INTS4] | 2.18 ± 0.21 | 2.37 ± 0.23
76 | CIQQILEAVLHCHQMGVVHRDLKP [CAMK2A] | 2.75 ± 0.32 | 3.03 ± 0.36
77 | CKICGRTFFPVALKKHGPICQKTA [ZC2HC1A] | 3.58 ± 0.063 | 3.92 ± 0.38
78 | CLAHLGEKVSQELKEPLHKALQML [BCL2L13] | 2.26 ± 0.28 | 2.16 ± 0.26
79 | CPPPPGPAAAPEGDWARLLEQMGA [ZBED3] | 3.53 ± 0.18 | 3.58 ± 0.84
80 | CQVFPERLAQGNPQQGFFSSFFTC [ATP23] | 2.07 ± 0.29 | 2.14 ± 0.33
81 | CRADHGLLLERAAAGSPRSPGPLP [ISL2] | 3.47 ± 0.46 | 3.1 ± 0.43
82 | CRGHTLERSVFSERTEESSAVQYF [CARM1] | 2.81 ± 0.34 | 2.92 ± 0.5
83 | CRGNQHDVPVIPLDVVDNQTEKLD [CASP6] | 5.05 ± 0.26 | 5.03 ± 0.13
84 | CRNGSSIQIAFEEVPQLPPRASIS [C2CD2L] | 3.03 ± 0.34 | 2.98 ± 0.16
85 | CSMSATFTLNFFRSGIQFGSWGSF [CLCN6] | 3.01 ± 0.57 | 2.75 ± 0.14
86 | CTEGPIDLVFVIDGSKSLGEENFE [MATN2] | 2.72 ± 0.29 | 2.52 ± 0.59
87 | CTGLKKAHRTEFYRNLTHNPPSDF [STK38L] | 2.85 ± 0.09 | 2.87 ± 0.28
88 | CTRDCMSFSVLNWDQVSRLHEVLT [TENT5C] | 2.13 ± 0.35 | 2.37 ± 0.23
89 | CVTLMQGHEGSVSSCHFARDSSFL [WDR88] | 2.28 ± 0.57 | 2.39 ± 0.13
